US20060140929
Changes are numbered by the printed parent chain.

What was measured:
[1] = test system: T1, hirudin mutein M 2 (I29R L30H)
T1 sequence: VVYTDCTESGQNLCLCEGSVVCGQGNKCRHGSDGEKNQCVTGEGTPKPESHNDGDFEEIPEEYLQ

[2] = test system: T2, hirudin mutein M 1 (I29A L30A)
T2 sequence: T1 sequence with R29A, H30A

## thrombin
[1]
  Relative activity (ED50 variant/ED50 WT hirudin), chromogenic thrombin cleavage assay: 1.2
[2]
  Relative activity (ED50 variant/ED50 WT hirudin), chromogenic thrombin cleavage assay: 1.4
